{"source": "patent US20100234450", "about": "“Molecular targeting agents” (published 2010)", "key": {"[1]": {"target": "T1, PSMA (prostate-specific membrane antigen) (Homo sapiens, UniProt Q04609 Q04609:1-750)", "T1 sequence (Q04609 whole entry, one chain of several)": "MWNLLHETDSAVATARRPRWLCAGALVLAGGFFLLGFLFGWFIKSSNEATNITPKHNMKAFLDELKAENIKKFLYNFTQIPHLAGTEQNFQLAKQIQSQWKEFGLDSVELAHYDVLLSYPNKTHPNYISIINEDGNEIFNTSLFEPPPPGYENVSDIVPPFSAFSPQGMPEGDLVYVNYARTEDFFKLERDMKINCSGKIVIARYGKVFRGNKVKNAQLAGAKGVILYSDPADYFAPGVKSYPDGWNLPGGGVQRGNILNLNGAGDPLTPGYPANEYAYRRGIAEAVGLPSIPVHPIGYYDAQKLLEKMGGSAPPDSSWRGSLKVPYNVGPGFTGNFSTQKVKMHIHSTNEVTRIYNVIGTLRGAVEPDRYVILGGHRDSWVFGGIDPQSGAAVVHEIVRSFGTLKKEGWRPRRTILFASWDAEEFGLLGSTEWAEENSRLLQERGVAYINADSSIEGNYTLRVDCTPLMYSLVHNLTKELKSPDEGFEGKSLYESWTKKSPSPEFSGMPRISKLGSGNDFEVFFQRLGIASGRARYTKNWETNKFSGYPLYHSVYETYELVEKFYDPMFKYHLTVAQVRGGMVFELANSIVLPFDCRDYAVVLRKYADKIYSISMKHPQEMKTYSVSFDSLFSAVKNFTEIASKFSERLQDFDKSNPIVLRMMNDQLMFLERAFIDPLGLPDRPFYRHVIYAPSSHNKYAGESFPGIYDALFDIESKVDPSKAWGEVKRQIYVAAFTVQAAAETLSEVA", "experiment": "cell binding to PSMA-positive 22Rv1(1.7) cells", "details": "tags: none, endogenous on 22Rv1(1.7) and LNCaP prostate cancer cells, chain copies: 2"}, "[2]": {"target": "T1, PSMA (prostate-specific membrane …)", "experiment": "cell binding to PSMA-positive 22Rv1(1.7) cells; Bmax much lower on PSMA-negative 22Rv1(wmr) cells", "details": "tags: none; endogenous on 22Rv1(1.7) and LNCaP prostate cancer cells; chain copies: 2; label: 111In"}}, "data": [{"binder": "GGGAGGACGAUGCGGAUCAGCCAUGUUUACGUCACUCCU (ssRNA)", "note": "[A10-3.2 (32P)]", "values": [{"measurement": "Kd", "setting": "[1]; label: 5'-32P", "result": 106, "unit": "nM"}]}, {"binder": "GGGAGGACGAUGCGGAUCAGCCAUGUUUACGUCACUCCU (ssRNA, 5'-DOTA chelator via linker)", "note": "[111In-DOTA-A10-3.2]", "values": [{"measurement": "Kd", "setting": "[2]", "result": 119, "unit": "nM"}]}, {"binder": "GGGAGGACGAUGCGGAUCAGCCAUGUUUACGUCACUCCU (ssRNA, 5'-NOTA chelator via linker)", "note": "[64Cu-NOTA-A10-3.2]", "values": [{"measurement": "Kd", "setting": "[1]; label: 64Cu", "result": 131, "unit": "nM"}]}]}
